Data on two molecules can be found in paper PMC4005679, “In vitro assembly and activity of an archaeal CRISPR-Cas type I-A Cascade interference complex” (Nucleic Acids Research, 2014).

For series [1], the target named is T1, Csa5;Cas7;Cas5a;Cas3';Cas3'';Cas8a2 (Thermoproteus tenax Kra1;Thermoproteus …, UniProt G4RJZ0;G4RJZ1;G4RJZ2;G4RJZ3;G4RJZ4;G4RJZ5 1-130;1-329;1-226;1-566;1-226;1-361, |||||). In words: EMSA; yeast RNA competitor; Ca2+ during reconstitution; 0.125-5 uM Cascade; affinity similar to crRNA 5.13; 100 mM HEPES/KOH pH 7, 100 mM NaCl, 10 mM beta-mercaptoethanol, 50 ng yeast RNA, 30 min at 70 C (Cascade; 6% native TBE-PAGE); Cas7 alone without yeast RNA at 80 C, agarose gel; 2-4 nM labeled crRNA. The conditions noted are these: protein: recombinant;recombinant;recombinant;recombinant;recombinant;recombinant; tags: untagged;His-SUMO tag cleaved off;;;;; label: 5'-32P (EMSA); unlabeled in SEC; single strand. Background: In EMSA bound probe runs differently from free probe, usually more slowly.

Series [2] deals with T1, Csa5;Cas7;Cas5a;Cas3';Cas3'';Cas8a2. In words: EMSA; yeast RNA competitor; Ca2+ during reconstitution; 0.125-2 uM Cascade; 100 mM HEPES/KOH pH 7, 100 mM NaCl, 10 mM beta-mercaptoethanol, 50 ng yeast RNA, 30 min at 70 C (Cascade; 6% native TBE-PAGE); Cas7 alone without yeast RNA at 80 C, agarose gel; 2-4 nM labeled crRNA. The conditions noted are these: protein: recombinant;recombinant;recombinant;recombinant;recombinant;recombinant; tags: untagged;His-SUMO tag cleaved off;;;;; label: 5'-32P; single strand.

B1: crRNA 5.2 (ssRNA)
RNA: AUUGAAAGCGUUGAUGCGGCCGCGACUGGCUGACUCAGCUAUUACGUUGA
modifications: 5'-OH from hammerhead cleavage before labeling
On to B1, for which the binding result in series [1] is given as “binds”.

B2: crRNA 5.13 (ssRNA)
RNA: AUUGAAAGAUCGCUUGUCCAACCGGGCUCCUCUAUAUGUCGUCAUUAGCUUAGA
modifications: 5'-OH from hammerhead cleavage before labeling
As to B2, the binding result in series [2] is on record as “binds”.
